Laboratory results taken from article PMC6003418.

Experiments:
SnLH3 [1] = assay: SAXS
SnLH3 [2] = assay: native gel or EMSA

Substance: SnLH3 (natural protein)
- stoichiometry N (SnLH3 [1]): 3
- stoichiometry N (SnLH3 [2]): 3
